Test [1] has as its target T1, Human CD39-L3, also known as NTPDase3 or ENTPD3 (human, UniProt O75355 44-485, limits assumed).
T1 construct: Recombinant protein coated in ELISA
T1 sequence: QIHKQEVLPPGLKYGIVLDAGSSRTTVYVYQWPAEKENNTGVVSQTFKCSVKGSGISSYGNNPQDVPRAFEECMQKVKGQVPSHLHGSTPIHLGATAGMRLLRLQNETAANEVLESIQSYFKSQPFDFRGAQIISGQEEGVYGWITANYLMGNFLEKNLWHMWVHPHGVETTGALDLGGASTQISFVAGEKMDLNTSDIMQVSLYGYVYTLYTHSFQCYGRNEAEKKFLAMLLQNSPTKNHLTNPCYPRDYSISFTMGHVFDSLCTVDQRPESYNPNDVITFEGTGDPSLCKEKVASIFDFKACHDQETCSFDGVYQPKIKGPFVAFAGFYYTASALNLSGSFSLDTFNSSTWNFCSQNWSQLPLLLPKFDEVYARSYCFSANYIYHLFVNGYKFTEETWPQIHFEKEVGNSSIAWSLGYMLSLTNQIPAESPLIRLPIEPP
Briefly: ELISA on coated recombinant human CD39-L3, panel huCD39 L3; no legend on the sheet, curve is I-394 by paragraph 85. The protocol: (§1) Wells were washed in TBS Tween 20, and further saturated 2H at RT in TBS Blocking buffer. Dose range concentration of primary antibody was incubated in TBS blocking buffer for 2 h at RT. Wells were washed in TBS Tween 20. […] Optical density was measured on Enspire™ at OD=450.
Background: An ELISA detects its analyte on a solid surface through an enzyme-linked reagent.

In test [2] the target is T2, human CD39 expressed at the cell surface (human, UniProt P49961 1-510).
T2 sequence: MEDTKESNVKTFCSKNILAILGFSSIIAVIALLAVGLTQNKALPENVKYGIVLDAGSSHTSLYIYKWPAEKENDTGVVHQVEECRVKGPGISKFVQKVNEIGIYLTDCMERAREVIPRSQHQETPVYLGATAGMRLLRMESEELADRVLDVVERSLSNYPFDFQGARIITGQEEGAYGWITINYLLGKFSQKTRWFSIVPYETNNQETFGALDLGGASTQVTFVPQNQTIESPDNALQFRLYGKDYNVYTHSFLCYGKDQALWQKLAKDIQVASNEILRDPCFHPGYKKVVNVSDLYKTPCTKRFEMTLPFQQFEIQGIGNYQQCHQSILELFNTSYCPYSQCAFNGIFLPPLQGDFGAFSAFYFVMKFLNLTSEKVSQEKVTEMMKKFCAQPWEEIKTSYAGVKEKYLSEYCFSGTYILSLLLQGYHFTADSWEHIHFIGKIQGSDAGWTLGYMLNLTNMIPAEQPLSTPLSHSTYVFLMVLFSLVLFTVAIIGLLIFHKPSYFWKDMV
Briefly: cell-based or functional assay.

Test [3] concerns the target T3, CD39-M2 extracellular domain recombinant protein (soluble recombinant human CD39 with M2 tag) (human, UniProt P49961 38-478, limits assumed).
T3 sequence: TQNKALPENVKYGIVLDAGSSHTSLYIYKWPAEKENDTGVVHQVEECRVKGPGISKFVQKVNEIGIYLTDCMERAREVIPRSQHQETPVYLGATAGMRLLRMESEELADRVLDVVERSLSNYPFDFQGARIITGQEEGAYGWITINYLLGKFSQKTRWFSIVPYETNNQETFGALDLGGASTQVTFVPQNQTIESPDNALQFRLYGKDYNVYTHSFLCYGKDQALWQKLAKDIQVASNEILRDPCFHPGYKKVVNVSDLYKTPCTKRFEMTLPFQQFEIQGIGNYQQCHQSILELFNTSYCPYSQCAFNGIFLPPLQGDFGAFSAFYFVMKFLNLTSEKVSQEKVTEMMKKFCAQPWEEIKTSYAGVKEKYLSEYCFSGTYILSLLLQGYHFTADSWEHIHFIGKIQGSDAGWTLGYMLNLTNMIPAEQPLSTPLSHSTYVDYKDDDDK
Description: cell-based or functional assay.

In test [4] the target is T4, Human CD39-L2, also known as NTPDase6 or ENTPD6 (human, UniProt O75354 61-484, limits assumed).
T4 construct: Recombinant protein coated in ELISA
T4 sequence: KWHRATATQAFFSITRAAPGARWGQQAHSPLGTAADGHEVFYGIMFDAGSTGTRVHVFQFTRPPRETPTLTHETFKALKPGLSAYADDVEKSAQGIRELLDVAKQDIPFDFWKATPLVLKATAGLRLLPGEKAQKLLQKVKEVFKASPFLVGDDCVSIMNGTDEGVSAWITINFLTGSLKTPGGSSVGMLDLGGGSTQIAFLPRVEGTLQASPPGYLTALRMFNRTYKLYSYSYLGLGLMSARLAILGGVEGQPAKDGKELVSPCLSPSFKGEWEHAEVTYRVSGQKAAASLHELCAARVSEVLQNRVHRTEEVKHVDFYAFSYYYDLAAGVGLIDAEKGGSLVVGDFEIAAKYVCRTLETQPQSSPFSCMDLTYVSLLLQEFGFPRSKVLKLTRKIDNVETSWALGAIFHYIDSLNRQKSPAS
Briefly: ELISA on coated recombinant human CD39-L2, panel huCD39 L2; no legend on the sheet, curve is I-394 by paragraph 85. The protocol:
as §1

Test [5] has as its target T5, CD39 mutant 19 (human, UniProt P49961 1-510).
T5 construct: expressed on Hek-293T cells; also called M19
T5 chain: T2 sequence with R138A, M139A, E142K
Briefly: flow cytometry on Hek-293T cells transfected with CD39 mutant 19 (panel M19); antibody concentration not given on the sheet. The source says: Mutants were transfected in Hek-293T cells, as shown in the table 1, using numbering of SEQ ID NO: 1. […] Mutant 19 includes substitutions at residues R138, M139 and E142.
For orientation: A flow cytometer gives signals particle by particle.

Positions count from the first letter of the chain named.

B1: I-394 (antibody, human IgG1, V domains shown)
VH: EVQLQQSGPELVKPGASVKMSCKASGYTFTDYNMHWVKQSHGRTLEWIGYIVPLNGGSTFNQKFKGRATLTVNTSSRTAYMELRSLTSEDSAAYYCARGGTRFAYWGQGTLVTVSA
VL: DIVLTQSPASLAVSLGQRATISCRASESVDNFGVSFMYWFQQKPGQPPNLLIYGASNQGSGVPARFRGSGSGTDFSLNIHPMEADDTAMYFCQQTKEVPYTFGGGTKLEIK
On to B1, for which the values for the binding result in test [1], in test [4] and in test [5] were “no binding (tested: about 50 µg/ml)”, “no binding (tested: about 50 µg/ml)” and “no binding”, respectively. In addition, in test [2], the “IC50, inhibition of CD39 ATPase activity in Ramos cells” value was found to be 0.05 µg/mL. The “IC50, inhibition of ATPase activity of soluble CD39” value in test [3] was determined as 0.003 µg/mL.

The values above are taken from patent publication US20230025732A1 (INNATE PHARMA, published 2023).
